Results taken from the DeepSol protein solubility set.

Experiment: soluble on expression in E. coli; label from the status in PepcDB or PDB records

Sequence	soluble on expression in E. coli
MSLSSAQQWSYVRQLQREIRRSDVLDLPLEKLPVVVFDLETSGFYPDQGDRILSIGAVKVVGLTIQEEETFYSVVHTDTVPPENILELTGLSVEELEAAPPLTSVLESFYAFIRHSTLVAHHASHEKAFMSHVTWQTMKLPFEHRVIDTSFLTKIVAPQELVTLDDCCAYYSIPVQNRHHAFEDSLMTAKLWIAAIAAAREAGFETLRDIYVHLAHQREGHHHHHH	soluble
MNVYNKADSFSLESDSIKDVIHDYICWLSMTDETRPSIGNVFTAMETFKIDAVRYYDGNIYDLAKDINTMSFDSFIRSLQNITSKKDKLTVYGTMGLLSIVVDINKGRDVSNIKFAAGIIILMEYIFDDTDLSHLKIALYRRIQRRYPIDDDR	not soluble
MAHHHHHHMGCTASKTKTPAANVASKGADEFYALATTERHPVAEKLLEEWVLFVDAQARRNAGDSSAARAYETRLKEVWADTTNRPVTHRSVDYVGKMFLEYIKEDLSHRGWGGNFDYKVAGVVTQGFLKANANIDTALSDTPEEVTWEIKIHYDSLGVS	soluble
MGHHHHHHSHMVGTQPRFLVKIHQKFYWAIRDDLIIHGGYKRSGLTSSFALVAMGPLGRPWAASFGFFFLAVVSLATPTPGEDDDIPVKIHRLTFVKGLVPDVTGGSSYYVCVYPSRKLFCTPTRWKDLSRFLNSETLNQVCSARTIYSVVPVEMLRIISLPLPPEIKSIVGGSIRSQYVSFPTFISLHPAKLPIWKSFANLKVSMKFRSSQWEVAFSVVSKTDYAITYWAEIPGFLIHESATINLINQPLLALYADLHVDMVMRLTDKFIYCQTYTLQQKNLTDPRTGKRPTSSVLIPSPHVKNCQIRRRNETHFVDTCSSAWDNYTSEAHNISRNSSSRGSNATQLVNITANPCTLPTLWDNWPCYTNYRSSPVPEIVIHENILLEGRAIYIIYHQIGLFDQPRLCVATFWMSKEETLLMQLDYPCEVSVEKKGKKFFIKSVVSMYHAISMVTFIWEYGIEIYDFLE	not soluble
MIARRNPIEQLPAIAQDPDKFGVLLSAAEFRTHLVESIRQARKRIYLVALYLENDDAGREILTELYAAKQRNPGLEIHICVDWHRAQRGLIGAAESEGNAAMYRDFAQQHEHCIPVYGIPVRGREVFGVLHLKGFIIDDQVIYSGASLNNVYLQFHGRYRFDRYHTLENAELADSMVHFIQQEMLAHPAVNNLACGSKPTTKEIKSDIRQFRASLAQANYQFAKQKVNEGQVAVTPLVGLGRRRNRLNQSIIQLLASAKDEVFICTPYFNFPPSIAKEVKKALRRGVKVHIVIGDKTANDFYIAPEEPFKTIGGLPYLYELNLRRFAKANEAHIASRKLSIHLWKHENHSFHLKGIWVDKRYMLITGNNLNPRAWKLDLENAILIRDDYHHLTTKFEAEIDNILQHTQLICTYKQIEKPEHYPEKVQRLVRRIMRLKADRVLKQILLEHHHHHH	soluble
MGSDKIHHHHHHMKIIQLEYFLAIVKYNSFTKAAQFLHISQPSLTATIKKMEADLGYDLFTRSTKDIKITEKGIQFYRYASELVQQYRSTMEKMYDLSVTSEPRIKIGTLESTNQWIANLIRKHHSDYPEQQYRLYEIHDKHQSIEQSLNFNIHLAITNEKITHEDIRSIPLYEESYILLAPKETFKNQNWVDVENLPLILPNKNSQVRKHLDDYFNRRNIRPNVVVETDRFESAVGFVHLGLGYAIIPRFYYQSFHTSNLEYKKIRPNLGRKIYINYHKKRKHSEQVHTFVQQCQDYLYGLLEAL	not soluble
MKVIEVTHPIQSKQYITEDVAMAFGFFDGMHKGHDKVFDILNEIAEARSLKKAVMTFDPHPSVVLNPKRKRTTYLTPLSDKIEKISQHDIDYCIVVNFSSRFANVSVEDFVENYIIKNNVKEVIAGFDFTFGKFGKGNMTVLQEYDAFNTTIVSKQEIENEKISTTSIRQDLINGELQKANDALGYIYSIKGTVVQGEKRGRTIGFPTANIQPSDDYLLPRKGVYAVSIEIGTENKLYRGVANIGVKPTFHDPNKAEVVIEVNIFDFEDNIYGERVTVNWHHFLRPEIKFDGIDPLVKQMNDDKSRAKYLLAVDFGDEVAYNI	not soluble
MHIKSAIIVVSDRISTGTRENKALPLLQRLMSDELQDYSYELISEVVVPEGYDTVVEAIATALKQGARFIITAGGTGIRAKNQTPEATASFIHTRCEGLEQQILIHGSTHTHLAGLSRGIVGVTGRDDHAALIVNAPSSSGGITDTWAVISPVIPNIFEGLDAS	soluble
